Measured values from article doi:10.1101/596536.

Assays:
[1] = biological target: TcdB2-TccC3 from Photorhabdus luminescens (Pl-TcdB2-TccC3) (P. luminescens) (UniProt Q8GF99); assay: BLI
[2] = biological target: TcdA1 from Photorhabdus luminescens (Pl-TcdA1) (P. luminescens) (UniProt Q9RN43); assay: cryo-EM structure
[3] = biological target: TcdA4 from Photorhabdus luminescens (Pl-TcdA4) (P. luminescens) (UniProt Q8GF92); assay: cryo-EM structure
[4] = biological target: XptA1 from Xenorhabdus nematophila (Xn-XptA1) (X. nematophila); assay: cryo-EM structure
[5] = biological target: TcdA4 from Morganella morganii (Mm-TcdA4) (M. morganii); assay: cryo-EM structure

| Substance | Kd [1] | stoichiometry N [2] | stoichiometry N [3] | stoichiometry N [4] | stoichiometry N [5] |
| --- | --- | --- | --- | --- | --- |
| TcdA1 from Photorhabdus luminescens (Pl-TcdA1), Q9RN43 1-2516 | 0.63 nM | 5 |  |  |  |
| TcdA4 from Photorhabdus luminescens (Pl-TcdA4), Q8GF92 1-2381 |  |  | 5 |  |  |
| XptA1 from Xenorhabdus nematophila (Xn-XptA1) (natural protein) | 1.99 nM |  |  | 5 |  |
| TcdA4 from Morganella morganii (Mm-TcdA4) (natural protein) | 11.3 nM |  |  |  | 5 |
